Reference: patent US20070142277

Target: T1, fluorogenic APP-based peptide MCA-SEVNLDAEFK(DNP)-CONH2
T1 chain: SEVNLDAEFK

B1: BACE455 (protein)
chain: ETDEEPEEPGRRGSFVEMVDNLRGKSGQGYYVEMTVGSPPQTLNILVDTGSSNFAVGAAPHPFLHRYYQRQLSSTYRDLRKGVYVPYTQGKWEGELGTDLVSIPHGPNVTVRANIAAITESDKFFINGSNWEGILGLAYAEIARIIGGIDHSLYTGSLWYTPIRREWYYEVIIVRVEINGQDLKMDCKEYNYDKSIVDSGTTNLRLPKKVFEAAVKSIKAASSTEKFPDGFWLGEQLVCWQAGTTPWNIFPVISLYLMGEVTNQSFRITILPQQYLRPVEDVATSQDDCYKFAISQSSTGTVMGAVIMEGFYVVFDRARKRIGFAVSACHVHDEFRTAAVEGPFVTLDMEDCGYNIPQTDESTLMTIAYVMAAICALFMLPLCLMVCQWRCLRCLRQQHDDFADDISLLK
Work on B1 yielded a BACE activity over time: mean fluorescence signal of Substrate V cleavage by HEK293 membrane extract, 15 min (mean fluorescence signal) of 125, a BACE activity over time: mean fluorescence signal of Substrate V cleavage by HEK293 membrane extract, 60 min (mean fluorescence signal) of 195 and a BACE activity over time: mean fluorescence signal of Substrate V cleavage by HEK293 membrane extract, 120 min (mean fluorescence signal) of 228. The BACE activity over time: mean fluorescence signal of Substrate V cleavage by HEK293 membrane extract, 240 min (mean fluorescence signal) was 239.
